The target of this assay is GraS (native), fused to the T18 fragment of adenylate cyclase (Staphylococcus aureus) (UniProt Q2G0D9).
UniProt Q2G0D9, sequence (Q2G0D9 whole entry, the tested form may be a part): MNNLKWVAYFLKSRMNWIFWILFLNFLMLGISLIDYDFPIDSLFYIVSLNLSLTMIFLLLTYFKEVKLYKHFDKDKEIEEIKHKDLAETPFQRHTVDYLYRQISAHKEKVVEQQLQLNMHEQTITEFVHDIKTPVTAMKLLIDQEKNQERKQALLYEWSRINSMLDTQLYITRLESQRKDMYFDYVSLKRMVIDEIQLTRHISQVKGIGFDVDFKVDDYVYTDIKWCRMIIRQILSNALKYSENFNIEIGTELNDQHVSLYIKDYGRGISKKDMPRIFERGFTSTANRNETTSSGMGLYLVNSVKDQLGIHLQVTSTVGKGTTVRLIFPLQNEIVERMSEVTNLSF

Consider “EL peptide of VraG (wild type) (domain or fragment)”, for which the survival of the ΔEL vraG mutant of JE2 in a 2-hr. killing assay with 2.5 μg/ml LL-37 in the presence of ~300 ng exogenous EL peptide was 40%.

These data come from paper PMC7951975.
